The values that follow come from patent US20030233681, “ICE1, a regulator of cold induced transcriptome and freezing tolerance in plants” (Arizona Bd of Regents/Behalf of Univ. of Arizona, published 2003).

Changes are numbered by the printed parent chain.

Data set [1] deals with T1, ICE1 (Arabidopsis thaliana, UniProt Q9LSE2 SEQ:1-494).
T1 sequence: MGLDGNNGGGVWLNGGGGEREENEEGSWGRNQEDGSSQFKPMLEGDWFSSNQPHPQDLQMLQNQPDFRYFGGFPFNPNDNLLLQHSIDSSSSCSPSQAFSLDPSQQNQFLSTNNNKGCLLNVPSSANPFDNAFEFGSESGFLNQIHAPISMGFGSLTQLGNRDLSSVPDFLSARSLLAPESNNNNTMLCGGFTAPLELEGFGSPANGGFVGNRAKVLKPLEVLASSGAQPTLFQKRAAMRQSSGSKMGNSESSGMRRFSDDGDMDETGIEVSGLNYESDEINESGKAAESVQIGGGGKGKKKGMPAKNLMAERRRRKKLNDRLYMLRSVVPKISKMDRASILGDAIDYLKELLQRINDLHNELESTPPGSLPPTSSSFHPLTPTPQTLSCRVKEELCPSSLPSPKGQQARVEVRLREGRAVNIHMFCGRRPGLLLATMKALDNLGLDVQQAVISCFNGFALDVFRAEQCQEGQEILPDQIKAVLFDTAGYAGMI
The experiment in a line: EMSA; one major complex; strongest of the sites by competition; poly(dI-dC), room temperature 20 min. The settings on record: tags: His tag N-terminal (pET14b, E. coli BL21 DE3); label: 32P. As for the experimental part: (§1) The wild type and mutant ICE1 cDNAs were amplified by RT-PCR and inserted into NdeI and BamHI sites in the expression vector pET14b (Novagen). Wild-type and mutant His-ICE1 fusion proteins were prepared from E. coli cells (BL21 DE3) according to the instruction manual of His-Bind Buffer Kit (Novagen). The electrophoresis mobility shift assay (EMSA) was carried out as described (Hao et al. 1998). The following double-stranded oligonucleotides listed in FIG. 6A (MYC-1, MYC-2, MYC-3, MYC-4 and MYC-5) were used as probes and competitors in EMSAs. Nucleotide sequences P1 (−949 to −930) and P2 (−909 to −890) were also used as competitors. P1 contains a putative MYB-recognition site. […] DNA probes were end-labeled with [γ-³²P]dCTP using the Klenow fragment and purified through a Sephadex G-50 column. The labeled probes (ca 0.02 pmol) were incubated for 20 min at room temperature with 2.3 μg of purified His-ICE1 fusion protein in 1×binding buffer (Hao et a.1998) supplemented with 20 pmol poly(dI-dC). The resulting DNA-protein complexes were resolved by electrophoresis on a 6% polyacrylamide gel in 0.5×TBE buffer and visualized by autoradiography. For competition experiments, unlabeled competitors were incubated with the His-ICE1 fusion protein on ice for 30 min prior to the addition of labeled probes. […]

Data set [2] addresses T2, ice1 (R236H) (Arabidopsis thaliana, UniProt Q9LSE2 SEQ:1-494, R236H).
T2 sequence: T1 sequence with R236H
Briefly: EMSA; R236H mutant still binds. The settings on record: tags: His tag N-terminal (pET14b, E. coli BL21 DE3); label: 32P. As to the method: as §1
(In EMSA bound probe runs differently from free probe, usually more slowly.)

Data set [3] has as its target T1, ICE1. The experiment in a line: EMSA; several complexes; weaker competitor than MYC-2; also represents MYC-5. The note with it: tags: His tag N-terminal (pET14b, E. coli BL21 DE3); label: 32P. As for the experimental part: (§2) For competition experiments, unlabeled competitors were incubated with the His-ICE1 fusion protein on ice for 30 min prior to the addition of labeled probes.
(§3) ICE1 has a basic helix-loop-helix (bHLH) domain and its amino acid sequence in the basic region is highly conserved with other bHLH proteins (FIG. 4B), and therefore may recognize promoter elements similar to the DNA-binding sites for known bHLH proteins. These proteins recognize DNA with the consensus sequence CANNTG (Meshi and Iwabuchi 1995). In the promoter region of CBF3, there are five potential MYC-recognition elements within a 1 kb region upstream of the transcription initiation site (Shinwari et al. 1998). These possible MYC-recognition sites, designated MYC-1 through MYC-5, fall into four groups because MYC-3 and MYC-5 share the same consensus sequence, CATTTG (FIG. 6A). Thus, MYC-3 was used to represent both MYC-3 and MYC-5. To determine whether ICE1 binds to these MYC-recognition sites in the CBF3 promoter, we expressed and purified His-ICE1 fusion protein from E. coli. Four DNA fragments encompassing each possible MYC-recognition site were used for interaction with His-ICE1 in an electrophoresis mobility shift assay (EMSA).
(§4) The MYC-2 fragment formed one major complex with ICE1, while the other DNA fragments formed several complexes with ICE1. […]

Data set [4] concerns the target T1, ICE1. Briefly: competition; unlabeled competitor with putative MYB site does not compete; 50-250 fold excess. The settings on record: tags: His tag N-terminal (pET14b, E. coli BL21 DE3). As for the experimental part: as §1
The target in data set [5] is T1, ICE1. The experiment in a line: EMSA; several complexes; weaker competitor than MYC-2. The settings on record: tags: His tag N-terminal (pET14b, E. coli BL21 DE3); label: 32P. As to the method: as §2, §3, §4
In data set [6] the target is T1, ICE1. The experiment in a line: competition; unlabeled non-related competitor does not compete; 50-250 fold excess. The note with it: tags: His tag N-terminal (pET14b, E. coli BL21 DE3). As for the experimental part:
as §1

B1: MYC-2 (dsDNA)
DNA 1: CTCTGGACACATGGCAGATC
DNA 2: GATCTGCCATGTGTCCAGAG
For B1, the binding result in data set [1] and in data set [2] was “binds” in each case.

B2: MYC-3 (dsDNA)
DNA 1: AATGTTACATTTGATCATTC
DNA 2: GAATGATCAAATGTAACATT
B2: the binding result in data set [3] is listed as “binds”.

B3: P1 (-949 to -930) (dsDNA)
DNA 1: ATATAATTAACTACTTTTAT
DNA 2: ATAAAAGTAGTTAATTATAT
With B3, in data set [4], the binding result is on record as “no binding”.

B4: MYC-4 (dsDNA)
DNA 1: ACAATTACAACTGCATGCTT
DNA 2: AAGCATGCAGTTGTAATTGT
In the case of B4, the binding result in data set [5] is “binds”.

B5: MYC-1 (dsDNA)
DNA 1: CATTTTACAATTGCTTCGCT
DNA 2: AGCGAAGCAATTGTAAAATG
As for B5, the binding result in data set [5] is listed as “binds”.

B6: P2 (-909 to -890) (dsDNA)
DNA 1: GACTCGTTTCGCGATCCGAT
DNA 2: ATCGGATCGCGAAACGAGTC
On to B6, for which, in data set [6], the binding result is “no binding”.
